Source: patent US20050124678 (Paratek Pharmaceuticals, Inc., published 2005)

Legend:
SoxS = SoxS (Escherichia coli, UniProt P0A9E2 P0A9E2:1-107)
Rob = Rob (Escherichia coli, UniProt P0ACI0 SEQ:1-289)
MarA = molecular target: T1, MarA (Escherichia coli, UniProt P0ACH5 P0ACH5:1-127)
T1 sequence: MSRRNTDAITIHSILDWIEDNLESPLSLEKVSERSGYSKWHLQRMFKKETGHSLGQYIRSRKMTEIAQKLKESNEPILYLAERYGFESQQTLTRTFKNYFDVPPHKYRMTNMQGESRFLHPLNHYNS

Measured: binding result

Chain of SoxS (P0A9E2 whole entry, one chain of several): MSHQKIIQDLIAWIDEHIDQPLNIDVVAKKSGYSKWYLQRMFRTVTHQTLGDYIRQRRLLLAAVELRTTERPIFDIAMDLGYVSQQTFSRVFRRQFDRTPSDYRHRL
Chain of Rob (P0ACI0 whole entry): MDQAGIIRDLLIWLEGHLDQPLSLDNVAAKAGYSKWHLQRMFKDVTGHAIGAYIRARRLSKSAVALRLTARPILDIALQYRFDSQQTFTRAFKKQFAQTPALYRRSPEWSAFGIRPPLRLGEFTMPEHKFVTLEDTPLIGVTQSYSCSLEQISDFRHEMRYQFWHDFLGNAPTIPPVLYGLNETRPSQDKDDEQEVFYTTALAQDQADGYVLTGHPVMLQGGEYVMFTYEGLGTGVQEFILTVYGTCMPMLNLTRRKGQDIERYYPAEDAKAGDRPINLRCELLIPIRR

B1: biotinylated target DNA (SEQ ID NO. 5) (dsDNA)
DNA 1: CCGATTTAGCAAAACGTGGCATCGGTC
DNA 2: GACCGATGCCACGTTTTGCTAAATCGG
binds: SoxS | Rob | MarA
